Reference: paper doi:10.1101/2021.09.12.459968 (bioRxiv, 2021)

How the values were obtained:
[1] = molecular target: the molecule itself; test: negative-staining electron microscopy
[2] = molecular target: full-length mouse NLRP3 (FLAG-mScarlet tag removed), double ring cage (mouse, UniProt Q8R4B8 1-1033); test: co-sedimentation

B1: mouse NLRP3 LRRm6 (K970E_Q1001R_F1029A) (natural protein)
chain: MTSVRCKLAQYLEDLEDVDLKKFKMHLEDYPPEKGCIPVPRGQMEKADHLDLATLMIDFNGEEKAWAMAVWIFAAINRRDLWEKAKKDQPEWNDTCTSHSSMVCQEDSLEEEWMGLLGYLSRISICKKKKDYCKMYRRHVRSRFYSIKDRNARLGESVDLNSRYTQLQLVKEHPSKQEREHELLTIGRTKMRDSPMSSLKLELLFEPEDGHSEPVHTVVFQGAAGIGKTILARKIMLDWALGKLFKDKFDYLFFIHCREVSLRTPRSLADLIVSCWPDPNPPVCKILRKPSRILFLMDGFDELQGAFDEHIGEVCTDWQKAVRGDILLSSLIRKKLLPKASLLITTRPVALEKLQHLLDHPRHVEILGFSEAKRKEYFFKYFSNELQAREAFRLIQENEVLFTMCFIPLVCWIVCTGLKQQMETGKSLAQTSKTTTAVYVFFLSSLLQSRGGIEEHLFSDYLQGLCSLAADGIWNQKILFEECDLRKHGLQKTDVSAFLRMNVFQKEVDCERFYSFSHMTFQEFFAAMYYLLEEEAEGETVRKGPGGCSDLLNRDVKVLLENYGKFEKGYLIFVVRFLFGLVNQERTSYLEKKLSCKISQQVRLELLKWIEVKAKAKKLQWQPSQLELFYCLYEMQEEDFVQSAMDHFPKIEINLSTRMDHVVSSFCIKNCHRVKTLSLGFFHNSPKEEEEERRGGRPLDQVQCVFPDTHVACSSRLVNCCLTSSFCRGLFSSLSTNRSLTELDLSDNTLGDPGMRVLCEALQHPGCNIQRLWLGRCGLSHQCCFDISSVLSSSQKLVELDLSDNALGDFGIRLLCVGLKHLLCNLQKLWLVSCCLTSACCQDLALVLSSNHSLTRLYIGENALGDSGVQVLCEKMKDPQCNLQKLGLVNSGLTSICCSALTSVLKTNQNFTHLYLRSNALGDTGLRLLCEGLLHPDCKLQMLELDNCSLTSHSCWNLSTILTHNHSLRELNLGNNDLGDLCVVTLCEVLKQQGCLLQSLRLGEMYLNRETKRALEALQEEKPELTIVAEISW
Question: Does B1 bind [1]?
Answer: binds

B2: recombinant full-length mouse NEK7 (enzyme)
chain: not shown
Question: Does B2 bind [2]?
Answer: binds
